# Legend:
# [1] = tested on: VIIa; assay: linked chromogenic assay with purified VIIa and factor X (apparent dissociation constant of TF-VIIa); format: binding; conditions: 5 mM Ca2+, Factor X 100 nM
# Protocol: The lysate was prepared by treating cell pellets with 15 mM octyl-glucopyranoside for 15 minutes at 37C. followed by a 3-fold dilution. […] Formed TF-VIIa complexes were quantified with substrate factor X added at 100 nM for a fixed time. Samples were then removed from the reaction and quenched in 100 mM EDTA in TBS (20 mM Tris-HCl, 140 mM NaCl, pH 7.4). The formation of Xa in the quenched reaction was determined with the chromogenic peptidyl substrate, Spectrozyme FXa (1.2 mM). The rate of Spectrozyme hydrolysis, measured as the increase in absorbance (mOD/min), was determined at ambient temperature in a kinetic plate reader (Molecular Devices, Mountain View, Calif.) followed by quenching and monitoring of product factor Xa formation using the Spectrozyme FXa.
# Enzfitter (Elsevier Biosoft) programs were employed to calculate the KDapp from the experimentally determined bound VIIa, and free VIIa which was obtained by subtracting bound VIIa from the initial VIIa concentration.
# [2] = tested on: recalcified plasma; assay: one stage clotting (coagulation) assay of full-length TF mutants in CHO cell lysates; format: biochemical; conditions: coagulant activity normalized to antigen concentration; full-length mutants expressed in CHO cells
# Protocol: The full-length TF mutants prepared above were analyzed for function by coagulation assay. […] Coagulation factor deficient plasmas were purchased from George King Bio-medical. The chromogenic substrate, Spectrozyme FXa, was from American Diagnostica Inc. (Greenwich, Conn.).
# An alternative approach was to use a polyvalent antibody purified by affinity for capturing TF followed by detection with the TF8-5G9 monoclonal antibody described above.
# Initiation of coagulation by wild-type and mutant TF in recalcified plasma was determined after lysis of cell pellets from 2×10^6 cells/ml for each expressed full-length mutant with 15 mM octyl-glucopyranoside in HBS for 15 minutes at 37C. followed by a 3-fold dilution.
# All data represented are based on at least three independent determinations performed in duplicate.
increase in KDapp for the TF-VIIa interaction compared to wild-type TF (ratio KD mutant/KD wild-type) [1] [fold],Molecule,reduction in specific functional activity (loss of function) relative to wild-type TF [2]
11,"Ile-22 to Ala: human tissue factor mutant with alanine substituted for Ile-22 (protein, UniProt P13726 33-295, looked up, variant I22A) Tissue factor: SGTTNTVAAYNLTWKSTNFKTALEWEPKPVNQVYTVQISTKSGDWKSKCFYTTDTECDLTDEIVKDVKQTYLARVFSYPAGNVESTGSAGEPLYENSPEFTPYLETNLGQPTIQSFEQVGTKVNVTVEDERTLVRRNNTFLSLRDVFGKDLIYTLYYWKSSSSGKKTAKTNTNEFLIDVDKGENYCFSVQAVIPSRTVNRKSTDSPVECMGQEKGEFREIFYIIGAVVFVVIILVIILAISLHKCRKAGVGQSWKENSPLNVS",35%
–,"Arg-131: human tissue factor alanine mutant at Arg-131 (protein, UniProt P13726 33-295, looked up, variant R131A) Tissue factor: SGTTNTVAAYNLTWKSTNFKTILEWEPKPVNQVYTVQISTKSGDWKSKCFYTTDTECDLTDEIVKDVKQTYLARVFSYPAGNVESTGSAGEPLYENSPEFTPYLETNLGQPTIQSFEQVGTKVNVTVEDEATLVRRNNTFLSLRDVFGKDLIYTLYYWKSSSSGKKTAKTNTNEFLIDVDKGENYCFSVQAVIPSRTVNRKSTDSPVECMGQEKGEFREIFYIIGAVVFVVIILVIILAISLHKCRKAGVGQSWKENSPLNVS",30-50%
18,"Phe-140: human tissue factor alanine mutant at Phe-140 (protein, UniProt P13726 33-295, looked up, variant F140A) Tissue factor: SGTTNTVAAYNLTWKSTNFKTILEWEPKPVNQVYTVQISTKSGDWKSKCFYTTDTECDLTDEIVKDVKQTYLARVFSYPAGNVESTGSAGEPLYENSPEFTPYLETNLGQPTIQSFEQVGTKVNVTVEDERTLVRRNNTALSLRDVFGKDLIYTLYYWKSSSSGKKTAKTNTNEFLIDVDKGENYCFSVQAVIPSRTVNRKSTDSPVECMGQEKGEFREIFYIIGAVVFVVIILVIILAISLHKCRKAGVGQSWKENSPLNVS",30-50%
41,"Asp-58 to Ala: human tissue factor mutant with alanine substituted for Asp-58 (protein, UniProt P13726 33-295, looked up, variant D58A) Tissue factor: SGTTNTVAAYNLTWKSTNFKTILEWEPKPVNQVYTVQISTKSGDWKSKCFYTTDTECALTDEIVKDVKQTYLARVFSYPAGNVESTGSAGEPLYENSPEFTPYLETNLGQPTIQSFEQVGTKVNVTVEDERTLVRRNNTFLSLRDVFGKDLIYTLYYWKSSSSGKKTAKTNTNEFLIDVDKGENYCFSVQAVIPSRTVNRKSTDSPVECMGQEKGEFREIFYIIGAVVFVVIILVIILAISLHKCRKAGVGQSWKENSPLNVS",–
2.1,"Val-64/Tyr-71 to Ala: human tissue factor double mutant with alanines for Val-64 and Tyr-71 (protein, UniProt P13726 33-295, looked up, variant V64A Y71A) Tissue factor: SGTTNTVAAYNLTWKSTNFKTILEWEPKPVNQVYTVQISTKSGDWKSKCFYTTDTECDLTDEIAKDVKQTALARVFSYPAGNVESTGSAGEPLYENSPEFTPYLETNLGQPTIQSFEQVGTKVNVTVEDERTLVRRNNTFLSLRDVFGKDLIYTLYYWKSSSSGKKTAKTNTNEFLIDVDKGENYCFSVQAVIPSRTVNRKSTDSPVECMGQEKGEFREIFYIIGAVVFVVIILVIILAISLHKCRKAGVGQSWKENSPLNVS",–
–,"Glu-105: human tissue factor mutant with Ala replacement for Glu-105 (protein, UniProt P13726 33-295, looked up, variant E105A) Tissue factor: SGTTNTVAAYNLTWKSTNFKTILEWEPKPVNQVYTVQISTKSGDWKSKCFYTTDTECDLTDEIVKDVKQTYLARVFSYPAGNVESTGSAGEPLYENSPEFTPYLATNLGQPTIQSFEQVGTKVNVTVEDERTLVRRNNTFLSLRDVFGKDLIYTLYYWKSSSSGKKTAKTNTNEFLIDVDKGENYCFSVQAVIPSRTVNRKSTDSPVECMGQEKGEFREIFYIIGAVVFVVIILVIILAISLHKCRKAGVGQSWKENSPLNVS",more than 50%
–,"Arg-136: human tissue factor alanine mutant at Arg-136 (protein, UniProt P13726 33-295, looked up, variant R136A) Tissue factor: SGTTNTVAAYNLTWKSTNFKTILEWEPKPVNQVYTVQISTKSGDWKSKCFYTTDTECDLTDEIVKDVKQTYLARVFSYPAGNVESTGSAGEPLYENSPEFTPYLETNLGQPTIQSFEQVGTKVNVTVEDERTLVRANNTFLSLRDVFGKDLIYTLYYWKSSSSGKKTAKTNTNEFLIDVDKGENYCFSVQAVIPSRTVNRKSTDSPVECMGQEKGEFREIFYIIGAVVFVVIILVIILAISLHKCRKAGVGQSWKENSPLNVS",30-50%
–,"Thr-139/Ser-142: human tissue factor alanine double mutant at Thr-139 and Ser-142 (protein, UniProt P13726 33-295, looked up, variant T139A S142A) Tissue factor: SGTTNTVAAYNLTWKSTNFKTILEWEPKPVNQVYTVQISTKSGDWKSKCFYTTDTECDLTDEIVKDVKQTYLARVFSYPAGNVESTGSAGEPLYENSPEFTPYLETNLGQPTIQSFEQVGTKVNVTVEDERTLVRRNNAFLALRDVFGKDLIYTLYYWKSSSSGKKTAKTNTNEFLIDVDKGENYCFSVQAVIPSRTVNRKSTDSPVECMGQEKGEFREIFYIIGAVVFVVIILVIILAISLHKCRKAGVGQSWKENSPLNVS",30-50%
7.4,"Arg-135: human tissue factor alanine mutant at Arg-135 (protein, UniProt P13726 33-295, looked up, variant R135A) Tissue factor: SGTTNTVAAYNLTWKSTNFKTILEWEPKPVNQVYTVQISTKSGDWKSKCFYTTDTECDLTDEIVKDVKQTYLARVFSYPAGNVESTGSAGEPLYENSPEFTPYLETNLGQPTIQSFEQVGTKVNVTVEDERTLVARNNTFLSLRDVFGKDLIYTLYYWKSSSSGKKTAKTNTNEFLIDVDKGENYCFSVQAVIPSRTVNRKSTDSPVECMGQEKGEFREIFYIIGAVVFVVIILVIILAISLHKCRKAGVGQSWKENSPLNVS",30-50%
–,"Thr-106: human tissue factor mutant with Ala replacement for Thr-106 (protein, UniProt P13726 33-295, looked up, variant T106A) Tissue factor: SGTTNTVAAYNLTWKSTNFKTILEWEPKPVNQVYTVQISTKSGDWKSKCFYTTDTECDLTDEIVKDVKQTYLARVFSYPAGNVESTGSAGEPLYENSPEFTPYLEANLGQPTIQSFEQVGTKVNVTVEDERTLVRRNNTFLSLRDVFGKDLIYTLYYWKSSSSGKKTAKTNTNEFLIDVDKGENYCFSVQAVIPSRTVNRKSTDSPVECMGQEKGEFREIFYIIGAVVFVVIILVIILAISLHKCRKAGVGQSWKENSPLNVS",more than 50%
3.5,"Arg-196: human tissue factor alanine mutant at Arg-196 (protein, UniProt P13726 33-295, looked up, variant R196A) Tissue factor: SGTTNTVAAYNLTWKSTNFKTILEWEPKPVNQVYTVQISTKSGDWKSKCFYTTDTECDLTDEIVKDVKQTYLARVFSYPAGNVESTGSAGEPLYENSPEFTPYLETNLGQPTIQSFEQVGTKVNVTVEDERTLVRRNNTFLSLRDVFGKDLIYTLYYWKSSSSGKKTAKTNTNEFLIDVDKGENYCFSVQAVIPSATVNRKSTDSPVECMGQEKGEFREIFYIIGAVVFVVIILVIILAISLHKCRKAGVGQSWKENSPLNVS",–

# Source: patent US5994296A, “Human mutant tissue factor compositions useful as tissue factor antagonists” (priority 1998, dated 1999)
